Test results: patent US20160222132A1 (IGM BIOSCIENES, published 2016)
Changes are numbered by the printed parent chain. In names and notes the source's numbering stands.

Assays:
[1] = molecular target: T1, Fc2b (human µ chain CH2 to CH4 with C291S, L352S, T354K, H395V and I397K mutations and tail piece deletion) (human, UniProt P01871 112-433); experiment: co-transfection in 293F cells, Capture Select IgM immunoprecipitation, non-reducing SDS-PAGE (FIG. 6, lane 2)
T1 construct: also called Pc2b
T1 chain: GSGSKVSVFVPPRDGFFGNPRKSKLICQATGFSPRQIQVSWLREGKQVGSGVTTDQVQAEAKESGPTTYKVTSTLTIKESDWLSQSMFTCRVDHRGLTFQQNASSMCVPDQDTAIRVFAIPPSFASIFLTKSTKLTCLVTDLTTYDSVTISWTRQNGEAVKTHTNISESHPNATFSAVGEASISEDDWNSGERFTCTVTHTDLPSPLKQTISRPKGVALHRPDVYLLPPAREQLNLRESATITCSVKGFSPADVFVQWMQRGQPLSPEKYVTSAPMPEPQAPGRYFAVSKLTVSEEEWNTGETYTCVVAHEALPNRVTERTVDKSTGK
Procedure: (§1) IgM was made by co-transfection of several different expression vectors at equal molar ratios into mammalian cells, such as 293F cells (Invitrogen). 10 μg of mixed DNA for expression vectors were mixed with 20 μl of 293Fectin (Invitrogen) for 30 minutes at room temperature in 2 ml of Opti-MEM (Invitrogen) and then added to 10⁷ 293F cells. Transfections with 293F cells were incubated for 72 hours post-transfection before harvesting the supernatant.
(§2) b. Protein purification by immunoprecipitation. [0243] i. Capture Select IgM (Catalog 2890.05, BAC, Thermo Fisher) [0244] Transfected supernatant were harvested by centrifugation at 2,000 G for 10 minutes. IgM proteins were purified by immunoprecipitation with affinity Capture Select IgM affinity matrix. 100 μl of Capture Select IgM slurry were added to 15 ml of harvested supernatant. […] The affinity matrixes were further washed with 60 μl of PBS and the supernatant were pooled for analysis by gel electrophoresis.
(§3) c. Gel electrophoresis [0246] i. Non-reducing SDS Page [0247] Non-reducing SDS PAGE was used to separate various mutant IgM proteins of different molecular weights. Novex 4-12% Bis-Tris Gel (Life Technologies) was used with Novex MES SDS Running Buffer (Life Technologies). [0248] II.

[2] = molecular target: the molecule itself; experiment: self-association (Fc homodimer); co-transfection of wild-type Okt:Fc in 293F cells, Capture Select IgM immunoprecipitation, non-reducing SDS-PAGE (FIG. 8, lane 1)
[3] = molecular target: T2, Fc2a (human µ chain CH2 to CH4 region with C291S, T350Y, T354E and I397E mutations and tail piece deletion) (human, UniProt P01871 112-433); experiment: co-transfection in 293F cells, Capture Select IgM immunoprecipitation, non-reducing SDS-PAGE (FIG. 6, lane 3)
T2 chain: T1 chain with T243Y, S245L, K247E, V288H, K290E
Procedure: as §1, §2, §3

B1: Rtx2a (µ chain of chimeric Rituxan (anti-CD20) Vh fused with CM1 to CM4 of human µ chain with C291S, T350Y, T354E and I397E mutations and tail piece deletion) … (antibody)
heavy: QVQLQQPGAELVKPGASVKMSCKASGYTFTSYNMHWVKQTPGRGLEWIGAIYPGNGDTSYNQKFKGKATLTADKSSSTAYMQLSSLTSEDSAVYYCARSTYYGGDWYFNVWGAGTTVTVSSGSASAPTLFPLVSCENSPSDTSSVAVGCLAQDFLPDSITFSWKYKNNSDISSTRGFPSVLRGGKYAATSQVLLPSKDVMQGTDEHVVCKVQHPNGNKEKNVPLPVIAELPPKVSVFVPPRDGFFGNPRKSKLICQATGFSPRQIQVSWLREGKQVGSGVTTDQVQAEAKESGPTTYKVTSTLTIKESDWLSQSMFTCRVDHRGLTFQQNASSMCVPDQDTAIRVFAIPPSFASIFLTKSTKLTCLVTDLTTYDSVTISWTRQNGEAVKTHTNISESHPNATFSAVGEASISEDDWNSGERFTCTVTHTDLPSPLKQTISRPKGVALHRPDVYLLPPAREQLNLRESATIYCLVEGFSPADVFVQWMQRGQPLSPEKYVTSAPMPEPQAPGRYFAHSELTVSEEEWNTGETYTCVVAHEALPNRVTERTVDKSTGK
light: QIVLSQSPAILSASPGEKVTMTCRASSSVSYIHWFQQKPGSSPKPWIYATSNLASGVPVRFSGSGSGTSYSLTISRVEAEDAATYYCQQWTSNPPTFGGGTKLEIKRTVAAPSVFIFPPSDEQLKSGTASVVCLLNNFYPREAKVQWKVDNALQSGNSQESVTEQDSKDSTYSLSSTLTLSKADYEKHKVYACEVTHQGLSSPVTKSFNRGEC
notes: One HL half pairs with the partner µ chain
binding result [1]: binds

B2: Fc chain (human IgM µ chain CM2 to CM4, cMyc tag, tail piece replaced by 6His tag, C291S) (other)
chain: GSGSKVSVFVPPRDGFFGNPRKSKLICQATGFSPRQIQVSWLREGKQVGSGVTTDQVQAEAKESGPTTYKVTSTLTIKESDWLSQSMFTCRVDHRGLTFQQNASSMCVPDQDTAIRVFAIPPSFASIFLTKSTKLTCLVTDLTTYDSVTISWTRQNGEAVKTHTNISESHPNATFSAVGEASISEDDWNSGERFTCTVTHTDLPSPLKQTISRPKGVALHRPDVYLLPPAREQLNLRESATITCLVTGFSPADVFVQWMQRGQPLSPEKYVTSAPMPEPQAPGRYFAHSILTVSEEEWNTGETYTCVVAHEALPNRVTERTVDKSTGKGGGSEQKLISEEDLNSAVDHHHHHH
notes: Native CM4 interface; also called wild-type Fc
binding result [2]: binds

B3: Rtx2b (µ chain of chimeric Rituxan (anti-CD20) Vh fused with CM1 to CM4 of human mu chain with C291S, L352S, T354K, H395V and I397K mutations and tail piece … (antibody)
heavy: B1 heavy with Y471T, L473S, E475K, H516V, E518K
light: B1 light
notes: as for B1
binding result [3]: binds
